According to PMC3853416, “Structural and functional characterisation of the methionine adenosyltransferase from Thermococcus kodakarensis” (BMC Structural Biology, 2013):

Key:
[1] = substrate: CSCC[C@H](N)C(=O)O; assay: HPLC (SCX column) detection of SAM formed; assay type: biochemical, Thermococcus kodakarensis; settings: co-substrate ATP (10 mM in standard assay), 0.1 M Tris-HCl, 0.02 M MgCl2, 0.2 M KCl, pH 8.0, 37 °C
Description: (§1) HPLC (SCX column) detection of SAM formed on TkMAT

[2] = substrate: Nc1ncnc2c1ncn2[C@@H]1O[C@H](COP(=O)(O)OP(=O)(O)OP(=O)(O)O)[C@@H](O)[C@H]1O; assay: HPLC (SCX column) detection of SAM formed; assay type: biochemical, Thermococcus kodakarensis; settings: co-substrate L-methionine (10 mM in standard assay), 0.1 M Tris-HCl, 0.02 M MgCl2, 0.2 M KCl, pH 8.0, 37 °C
Description: as §1

[3] = biological target: the molecule itself; assay: SEC; Superdex 200 prep grade, XK 16/70 column; 2 mL of 5 mg/mL protein; 40 mM Tris-HCl, 150 mM NaCl, pH 8.0; 1 mL/min; column calibrated with proteins of known size

B1: methionine adenosyltransferase from Thermococcus kodakarensis (enzyme, UniProt Q5JF22 1-405, looked up)
chain: MAGKVRNIVVEELVRTPVEMQKVELVERKGIGHPDSIADGIAEAVSRALSREYVKRYGIILHHNTDQVEVVGGRAYPQFGGGEVIKPIYILLSGRAVEMVDREFFPVHEIALKAAKDYLRKAVRHLDLEHHVIIDSRIGQGSVDLVGVFNKAKKNPIPLANDTSFGVGYAPLSETEKIVLETEKYLNSDEFKKKYPAVGEDIKVMGLRKGDEIDLTIAAAIVDSEVDNPDDYMAVKEAIYEAAKGIVESHTERPTNIYVNTADDPKEGIYYITVTGTSAEAGDDGSVGRGNRVNGLITPNRHMSMEAAAGKNPVSHVGKIYNILSMLIANDIAEQVEGVEEVYVRILSQIGKPIDEPLVASVQIIPKKGYSIDVLQKPAYEIADEWLANITKIQKMILEDKVNVF
notes: methionine adenosyltransferase (S-adenosylmethionine synthase) of Thermococcus kodakarensis, gene cloned from genomic DNA into pET28a(+); the printed gene length (1155 bp) and primers may not fit this gene; Homodimer in solution by size exclusion chromatography; No removal of the His-tag is described; also called TkMAT; MAT
Q: Which results are given for B1?
A: Km [1]: 0.31 ± 0.07 mM; Km [2]: 6.54 ± 2.49 mM; stoichiometry N [3]: 2
